PMC10775387 (Research Square, 2023)

Biological target: T1, EBOV GP1,2 stalk–MPER epitope peptide (aa 626–640) (Ebola virus (EBOV), UniProt Q05320)
T1 chain: IIHDFVDKTLPDQGD
Assay: crystal structure
Conditions: both partners purified

B1: 3A6 Fab (Fab, V domains shown)
VH: EVQLLESGGGLVKPGGSLRLSCAASGFTFNEYMMNWVRQPPGKGLEWVSSISGTSTYINYADSVKGRFTISRDNAKNSLYLQMNSLRSDDTAMYYCARGSTGGYWGQGTLITVSS
VL: DIVMTQTPLSSAVTLGQPASISCRSSQRLVHSDGNTYLSWLHQRPGQPPRLLIYKVSLRFSGVPDRFSGSGAGTDFTLKISRVEAEDVGIYYCMQATQFPLTFGGGTKVEIK
Q: Does B1 bind?
A: Result: binds
